Measured values reported in patent publication US20100129369A1 (Eli Lilly, published 2010).

How the values were obtained:
[1] = biological target: T1, RON-ECD-Fc (human, UniProt Q04912 25-957); assay: ELISA, coated ECD-Fc, antibody 2777.778 ng/mL
T1 construct: extracellular domain; Bought reagent; not shown: Fc part of the bought fusion
T1 sequence (looked up): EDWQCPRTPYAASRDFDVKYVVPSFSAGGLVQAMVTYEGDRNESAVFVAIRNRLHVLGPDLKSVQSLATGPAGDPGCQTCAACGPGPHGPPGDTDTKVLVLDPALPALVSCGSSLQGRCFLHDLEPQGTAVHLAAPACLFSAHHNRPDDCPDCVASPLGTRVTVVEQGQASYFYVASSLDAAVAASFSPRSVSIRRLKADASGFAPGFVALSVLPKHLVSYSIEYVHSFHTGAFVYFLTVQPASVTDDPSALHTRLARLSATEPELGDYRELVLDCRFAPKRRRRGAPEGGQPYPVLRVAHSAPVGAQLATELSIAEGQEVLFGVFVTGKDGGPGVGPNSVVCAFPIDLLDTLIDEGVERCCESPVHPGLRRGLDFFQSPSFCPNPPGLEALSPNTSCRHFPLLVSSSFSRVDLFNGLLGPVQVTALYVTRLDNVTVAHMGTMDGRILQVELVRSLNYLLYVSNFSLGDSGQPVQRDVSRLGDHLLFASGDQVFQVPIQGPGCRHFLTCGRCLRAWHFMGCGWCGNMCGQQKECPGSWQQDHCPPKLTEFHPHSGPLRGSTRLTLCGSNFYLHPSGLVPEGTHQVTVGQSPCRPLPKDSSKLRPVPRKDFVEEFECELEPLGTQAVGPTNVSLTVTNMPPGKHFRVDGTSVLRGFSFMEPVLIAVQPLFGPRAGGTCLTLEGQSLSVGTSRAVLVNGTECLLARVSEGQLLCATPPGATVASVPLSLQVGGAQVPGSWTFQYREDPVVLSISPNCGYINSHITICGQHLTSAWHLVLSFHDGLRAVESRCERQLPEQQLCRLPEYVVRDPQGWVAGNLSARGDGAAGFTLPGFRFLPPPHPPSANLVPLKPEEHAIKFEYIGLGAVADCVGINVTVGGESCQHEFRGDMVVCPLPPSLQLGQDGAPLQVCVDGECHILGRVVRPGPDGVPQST

[2] = biological target: T2, PlexinA2-ECD-Fc (human, UniProt O75051 35-1237); assay: ELISA, coated ECD-Fc, antibody 2777.778 ng/mL
T2 construct: extracellular domain; Bought reagent
T2 sequence (looked up): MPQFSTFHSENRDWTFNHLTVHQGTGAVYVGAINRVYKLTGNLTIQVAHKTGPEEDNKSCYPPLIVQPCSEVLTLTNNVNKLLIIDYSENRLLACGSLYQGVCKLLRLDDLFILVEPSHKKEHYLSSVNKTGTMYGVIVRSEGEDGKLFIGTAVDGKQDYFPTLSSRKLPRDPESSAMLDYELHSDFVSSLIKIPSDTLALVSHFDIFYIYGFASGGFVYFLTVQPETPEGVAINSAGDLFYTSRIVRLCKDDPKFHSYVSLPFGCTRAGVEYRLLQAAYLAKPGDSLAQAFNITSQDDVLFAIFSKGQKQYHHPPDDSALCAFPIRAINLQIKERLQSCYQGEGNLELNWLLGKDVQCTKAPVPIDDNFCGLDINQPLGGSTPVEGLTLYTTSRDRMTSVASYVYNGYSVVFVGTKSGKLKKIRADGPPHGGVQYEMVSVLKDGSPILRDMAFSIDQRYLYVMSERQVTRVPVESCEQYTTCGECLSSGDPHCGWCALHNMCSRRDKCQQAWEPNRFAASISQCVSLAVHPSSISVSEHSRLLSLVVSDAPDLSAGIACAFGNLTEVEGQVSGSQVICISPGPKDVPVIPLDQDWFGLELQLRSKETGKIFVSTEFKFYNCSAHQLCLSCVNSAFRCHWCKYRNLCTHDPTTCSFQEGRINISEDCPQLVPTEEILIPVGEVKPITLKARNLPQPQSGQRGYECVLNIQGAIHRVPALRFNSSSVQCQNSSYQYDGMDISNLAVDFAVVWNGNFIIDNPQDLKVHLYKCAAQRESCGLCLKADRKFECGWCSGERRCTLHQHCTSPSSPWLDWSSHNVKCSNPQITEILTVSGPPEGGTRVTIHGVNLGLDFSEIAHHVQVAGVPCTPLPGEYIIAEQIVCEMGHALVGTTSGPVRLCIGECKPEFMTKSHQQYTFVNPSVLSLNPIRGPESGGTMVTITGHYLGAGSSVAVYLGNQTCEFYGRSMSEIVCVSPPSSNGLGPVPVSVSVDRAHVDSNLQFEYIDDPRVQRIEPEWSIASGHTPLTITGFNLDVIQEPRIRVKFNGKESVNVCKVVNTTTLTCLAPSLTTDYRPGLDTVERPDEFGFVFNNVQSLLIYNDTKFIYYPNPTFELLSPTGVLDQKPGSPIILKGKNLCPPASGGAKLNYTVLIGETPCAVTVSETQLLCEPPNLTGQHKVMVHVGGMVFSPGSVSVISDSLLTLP

[3] = biological target: T1, RON-ECD-Fc; assay: ELISA, coated ECD-Fc, antibody 0.010 ng/mL
Protocol: (§1) Wells of 96-well EIA/RIA high binding plates (Costar, #2592) are coated with 100 μL of 1 μg/mL human c-Met extracellular domain (ECD)-Fc-Flis fusion (SEQ ID NO:72), RON-ECD-Fc (R&D Systems, #1947-MS), or PlexinA2-ECD-Fc (Abnova, Taipei, Taiwan #H00005362-P01) in coating buffer (BioFX Labs, # COAT-1000-01) overnight at 4° C. […] After the plates are washed, 100 μL/well of substrate solution (BioFx, #TMBW-1000-01) are added and the plates are incubated for 10 min. at room temperature. 100 μL/well of stop solution (BioFx, # LSTP-1000-01) are added to stop the reaction. The colorimetric signals are developed and read at 450 nm using a SpectraMax 190 plate reader (Molecular Devices, Sunnyvale, Calif.). c-Met antibody binding to c-Met, RON and PlexinA2 ECDs is proportional to color signal production.

[4] = biological target: T3, Human c-Met-Flis-Fc ECD (human); assay: ELISA, coated ECD-Fc, antibody 0.010 ng/mL
T3 construct: also called human c-Met extracellular domain (ECD)-Fc-Flis fusion; Human cMet-ECD-Fc-Flis
T3 sequence (chain, as listed by the source limits assumed): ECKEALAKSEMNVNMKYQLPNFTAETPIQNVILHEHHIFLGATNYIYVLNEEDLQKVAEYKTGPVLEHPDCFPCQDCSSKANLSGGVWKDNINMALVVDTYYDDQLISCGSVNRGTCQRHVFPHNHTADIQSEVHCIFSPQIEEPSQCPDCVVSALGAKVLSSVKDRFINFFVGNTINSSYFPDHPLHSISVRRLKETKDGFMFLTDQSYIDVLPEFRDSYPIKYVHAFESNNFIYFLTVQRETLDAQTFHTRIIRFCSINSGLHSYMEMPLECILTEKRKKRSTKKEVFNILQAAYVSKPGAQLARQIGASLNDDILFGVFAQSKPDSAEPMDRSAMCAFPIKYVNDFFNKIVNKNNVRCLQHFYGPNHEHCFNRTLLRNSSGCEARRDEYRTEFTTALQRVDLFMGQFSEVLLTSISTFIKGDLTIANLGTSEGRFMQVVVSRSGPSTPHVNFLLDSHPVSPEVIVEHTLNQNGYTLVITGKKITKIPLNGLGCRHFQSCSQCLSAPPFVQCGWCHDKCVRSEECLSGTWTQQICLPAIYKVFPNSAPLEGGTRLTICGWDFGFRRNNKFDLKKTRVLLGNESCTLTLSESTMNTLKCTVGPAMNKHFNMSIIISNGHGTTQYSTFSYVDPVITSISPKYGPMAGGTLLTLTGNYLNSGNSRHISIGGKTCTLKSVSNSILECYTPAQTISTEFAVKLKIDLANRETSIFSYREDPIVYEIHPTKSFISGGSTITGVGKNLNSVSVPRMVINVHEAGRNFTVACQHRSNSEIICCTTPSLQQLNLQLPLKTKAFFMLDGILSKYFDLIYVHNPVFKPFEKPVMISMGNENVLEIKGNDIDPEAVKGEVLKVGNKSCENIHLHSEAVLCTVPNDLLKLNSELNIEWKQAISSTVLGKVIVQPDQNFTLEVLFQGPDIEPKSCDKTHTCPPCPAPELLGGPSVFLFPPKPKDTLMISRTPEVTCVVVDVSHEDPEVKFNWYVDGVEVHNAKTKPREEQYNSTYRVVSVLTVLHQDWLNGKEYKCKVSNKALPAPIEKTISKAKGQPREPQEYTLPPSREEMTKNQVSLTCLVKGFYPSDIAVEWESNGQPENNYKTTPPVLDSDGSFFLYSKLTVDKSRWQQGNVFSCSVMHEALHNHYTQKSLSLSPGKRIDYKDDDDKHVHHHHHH
Protocol: as §1

[5] = biological target: T2, PlexinA2-ECD-Fc; assay: ELISA, coated ECD-Fc, antibody 0.010 ng/mL
Protocol: as §1

B1: C8-6 (antibody, human IgG2, kappa, V domains shown)
VH: QVQLVQSGAEVKKPGASVKVSCKASGYTFTDYYMHWVRQAPGQGLEWMGRVNPNRGGTTYNQKFEGRVTMTTDTSTSTAYMELRSLRSDDTAVYYCARTNWLDYWGQGTTVTVSS
VL: DIQMTQSPSSLSASVGDRVTITCSVSSSVSSIYLHWYQQKPGKAPKLLIYSTSNLASGVPSRFSGSGSGTDFTLTISSLQPEDFATYYCIQYSGYPLTFGGGTKVEIKR
notes: Called IgG4, kappa; also called Mab C8-6
[1]
  Average A450 nm: 0.088 A450 nm
[2]
  Average A450 nm: 0.094 A450 nm
[3]
  Average A450 nm: 0.097 A450 nm
[4]
  Average A450 nm: 0.335 A450 nm
[5]
  Average A450 nm: 0.095 A450 nm
